Values of other authors in patent publication US7266483B2, “System and methods for optimized drug delivery and progression of diseased and normal cells” (Optimata Ltd., priority 2000, dated 2007).

B1: G-CSF: Granulocyte-Colony Stimulating Factor; generates an increase in blood Neutrophil levels (protein, UniProt P09919 31-207, looked up)
Granulocyte …: TPLGPASSLPQSFLLKCLEQVRKIQGDGAALQEKLVSECATYKLCHPEELVLLGHSLGIPWAPLSSCPSQALQLAGCLSQLHSGLFLYQGLLQALEGISPELGPTLDTLQLDVADFATTIWQQMEELGMAPALQPTQGAMPAFASAFQRRAGGVLVASHLQSFLEVSYRVLRHLAQP

What was measured:
post mitotic compartment = conditions: counts made on day 5 after G-CSF administration; noted by Price
[1] = modeled as exponential distribution, held constant
[2] = average model parameter calculated from published data

| Molecule | a, TPO-clearing ability of the receptors [2] | f, coefficient of non-specific TPO clearance [2] [h⁻¹] | relation coefficient of initial maximum TPO blood concentration (xi) to administered intravenous (IV) dose (s) (linear relation, xi=0.0167·si) | number of cells in the post mitotic compartment following administration of G-CSF (post mitotic compartment) | half-life of G-CSF in the blood [1] [h] |
| --- | --- | --- | --- | --- | --- |
| TPO: Thrombopoiesis-controlling cytokine, glycoprotein of about 350 amino acids; term covers its recombinant forms and analogs | 38 pg/ml/hr/receptor molecule | 0.1 | 0.0167 |  |  |
| B1 |  |  |  | not significantly changed | 3.5 |
